Results as given in patent publication US20180057888A1, “KUB5/HERA AS A DETERMINANT OF SENSITIVITY TO DNA DAMAGE” (priority 2015, published 2018).

Target: RNA Polymerase II (RNAPII), phospho-Ser2 C-terminal domain (pS2-CTD) (UniProt P24928)
Assay: cell-based or functional assay

Sequence of myc-tagged wild-type Kub5-Hera (K-H) (Q9NQG5 whole entry): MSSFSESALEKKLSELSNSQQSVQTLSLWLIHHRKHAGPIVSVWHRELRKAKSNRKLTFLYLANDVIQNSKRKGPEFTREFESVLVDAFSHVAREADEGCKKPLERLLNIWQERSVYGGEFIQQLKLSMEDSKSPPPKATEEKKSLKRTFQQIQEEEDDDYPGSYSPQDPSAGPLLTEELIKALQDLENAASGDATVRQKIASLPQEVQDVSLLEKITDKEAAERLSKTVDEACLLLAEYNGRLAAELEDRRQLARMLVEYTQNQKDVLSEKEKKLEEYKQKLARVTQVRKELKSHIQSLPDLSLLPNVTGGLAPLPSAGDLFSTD

- CDK1 promoter activity (luciferase reporter, 231 cells): 3 fold
Substance: myc-tagged wild-type Kub5-Hera (K-H) (from UniProt Q9NQG5 1-326)
